Measurements from publication PMC9482650, “Quantitative fragmentomics allow affinity mapping of interactomes” (Nature Communications, 2022).

T1: PDZRN3_1, Q9UPQ7
T1 sequence (Q9UPQ7 244-349, limits assumed, looked up): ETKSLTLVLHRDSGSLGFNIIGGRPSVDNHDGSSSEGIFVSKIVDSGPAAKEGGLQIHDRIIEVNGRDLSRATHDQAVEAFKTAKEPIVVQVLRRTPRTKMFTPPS

T2: HTRA3, P83110
T2 sequence (P83110 354-453, limits assumed, looked up): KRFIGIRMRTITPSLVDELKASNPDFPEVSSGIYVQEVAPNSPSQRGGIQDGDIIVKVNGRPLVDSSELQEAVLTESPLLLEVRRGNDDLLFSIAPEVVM

T3: MPDZ_10, O75970
T3 sequence (O75970 1624-1722, limits assumed, looked up): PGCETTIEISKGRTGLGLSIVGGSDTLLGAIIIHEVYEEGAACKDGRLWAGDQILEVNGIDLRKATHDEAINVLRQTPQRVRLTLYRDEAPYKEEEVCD

T4: FRMPD1, Q5SYB0
T4 sequence (Q5SYB0 52-145, limits assumed, looked up): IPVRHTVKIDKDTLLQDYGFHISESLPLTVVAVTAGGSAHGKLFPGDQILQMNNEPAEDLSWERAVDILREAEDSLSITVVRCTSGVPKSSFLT

T5: DFNB31_2, Q9P202
T5 sequence (Q9P202 274-371, limits assumed, looked up): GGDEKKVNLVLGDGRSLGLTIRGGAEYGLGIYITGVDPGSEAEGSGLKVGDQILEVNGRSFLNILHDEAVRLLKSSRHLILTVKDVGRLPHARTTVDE

T6: SNTB1, Q13884
T6 sequence (Q13884 107-205, limits assumed, looked up): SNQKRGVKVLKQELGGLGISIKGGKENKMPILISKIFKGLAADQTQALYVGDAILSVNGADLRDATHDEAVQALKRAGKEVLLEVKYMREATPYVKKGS

T7: LRRC7, Q96NW7
T7 sequence (Q96NW7 1440-1537, limits assumed, looked up): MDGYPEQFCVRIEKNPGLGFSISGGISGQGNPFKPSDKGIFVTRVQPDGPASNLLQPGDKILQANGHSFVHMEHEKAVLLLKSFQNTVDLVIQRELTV

T8: MPP7, Q5T2T1
T8 sequence (Q5T2T1 134-230, limits assumed, looked up): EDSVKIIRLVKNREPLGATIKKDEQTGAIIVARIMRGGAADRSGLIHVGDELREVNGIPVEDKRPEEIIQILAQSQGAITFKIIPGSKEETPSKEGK

T9: RHPN1, Q8TCX5
T9 sequence (Q8TCX5 508-602, limits assumed, looked up): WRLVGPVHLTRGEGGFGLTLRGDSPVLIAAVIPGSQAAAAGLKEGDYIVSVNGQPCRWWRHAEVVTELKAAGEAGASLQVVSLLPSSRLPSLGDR

T10: ARHGAP21, Q5T5U3
T10 sequence (Q5T5U3 45-169, limits assumed, looked up): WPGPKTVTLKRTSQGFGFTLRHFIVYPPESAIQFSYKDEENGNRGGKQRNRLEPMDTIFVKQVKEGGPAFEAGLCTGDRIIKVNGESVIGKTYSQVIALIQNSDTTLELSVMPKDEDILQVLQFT

T11: MPDZ_5, O75970
T11 sequence (O75970 695-796, limits assumed, looked up): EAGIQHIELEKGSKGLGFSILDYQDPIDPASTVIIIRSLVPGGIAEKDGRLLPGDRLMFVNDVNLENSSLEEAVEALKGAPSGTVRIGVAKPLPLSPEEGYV

B1: CXCR1, P25024 (peptide)
chain: SSSVNVSSNL

The binders below were run against T1, PDZRN3_1, Q9UPQ7 (assay: holdup assay). Conditions: plain residues with an end cap or a label only (N-terminal biotin on a linker: ado-ado).
Design: key: below the threshold = too weak to quantify, mostly under pKd 3.1 to 4

Row | Binder | pKd
1 | B1 | below the threshold

Each binder was assayed against DLG4_1, P78352 (assay: holdup assay). Conditions: plain residues with an end cap or a label only (N-terminal biotin on a linker: ado-ado).
Design: key: below the threshold = too weak to quantify, mostly under pKd 3.1 to 4

DLG4_1, P78352, sequence (P78352 62-152): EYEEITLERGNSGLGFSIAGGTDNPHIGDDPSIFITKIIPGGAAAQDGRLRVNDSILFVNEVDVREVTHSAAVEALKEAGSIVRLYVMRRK

Row | Binder | pKd
2 | B1 | below the threshold

These binders were tested against FRMPD2_2, Q68DX3 (assay: holdup assay). Conditions: plain residues with an end cap or a label only (N-terminal biotin on a linker: ado-ado).
Design: key: below the threshold = too weak to quantify, mostly under pKd 3.1 to 4

FRMPD2_2, Q68DX3, sequence (Q68DX3 944-1038): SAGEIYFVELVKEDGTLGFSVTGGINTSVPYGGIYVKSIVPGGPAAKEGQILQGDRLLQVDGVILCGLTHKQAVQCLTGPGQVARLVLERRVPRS

Row | Binder | pKd
3 | B1 | below the threshold

These binders were tested against GORASP1, Q9BQQ3 (assay: holdup assay). Conditions: plain residues with an end cap or a label only (N-terminal biotin on a linker: ado-ado).
Design: key: below the threshold = too weak to quantify, mostly under pKd 3.1 to 4

GORASP1, Q9BQQ3, sequence (Q9BQQ3 1-208): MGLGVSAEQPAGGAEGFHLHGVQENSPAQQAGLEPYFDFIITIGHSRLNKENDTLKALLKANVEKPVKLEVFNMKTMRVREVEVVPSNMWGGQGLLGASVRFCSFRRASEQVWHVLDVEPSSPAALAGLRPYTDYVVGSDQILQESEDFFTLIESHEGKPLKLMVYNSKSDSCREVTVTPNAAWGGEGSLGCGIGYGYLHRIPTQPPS

Row | Binder | pKd
4 | B1 | below the threshold

What follows are binders tested against T2, HTRA3, P83110 (assay: holdup assay). Conditions: plain residues with an end cap or a label only (N-terminal biotin on a linker: ado-ado).
Design: key: below the threshold = too weak to quantify, mostly under pKd 3.1 to 4

Row | Binder | pKd
5 | B1 | below the threshold

What follows are binders tested against T3, MPDZ_10, O75970 (assay: holdup assay). Conditions: plain residues with an end cap or a label only (N-terminal biotin on a linker: ado-ado).
Design: key: below the threshold = too weak to quantify, mostly under pKd 3.1 to 4

Row | Binder | pKd
6 | B1 | below the threshold

What follows are binders tested against SCRIB_1, Q14160 (assay: holdup assay). Conditions: plain residues with an end cap or a label only (N-terminal biotin on a linker: ado-ado).
Design: key: below the threshold = too weak to quantify, mostly under pKd 3.1 to 4

SCRIB_1, Q14160, sequence (Q14160 718-814): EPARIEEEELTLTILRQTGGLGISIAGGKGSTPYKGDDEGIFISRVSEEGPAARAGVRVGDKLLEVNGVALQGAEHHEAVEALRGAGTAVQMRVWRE

Row | Binder | pKd
7 | B1 | below the threshold

What follows are binders tested against TJP1_2, Q07157 (assay: holdup assay). Conditions: plain residues with an end cap or a label only (N-terminal biotin on a linker: ado-ado).
Design: key: below the threshold = too weak to quantify, mostly under pKd 3.1 to 4

TJP1_2, Q07157, sequence (Q07157 181-274): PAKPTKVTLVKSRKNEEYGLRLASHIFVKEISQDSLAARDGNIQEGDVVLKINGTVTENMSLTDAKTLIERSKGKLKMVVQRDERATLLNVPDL

Row | Binder | pKd
8 | B1 | below the threshold

These binders were tested against T4, FRMPD1, Q5SYB0 (assay: holdup assay). Conditions: plain residues with an end cap or a label only (N-terminal biotin on a linker: ado-ado).
Design: key: below the threshold = too weak to quantify, mostly under pKd 3.1 to 4

Row | Binder | pKd
9 | B1 | below the threshold

What follows are binders tested against T5, DFNB31_2, Q9P202 (assay: holdup assay). Conditions: plain residues with an end cap or a label only (N-terminal biotin on a linker: ado-ado).
Design: key: below the threshold = too weak to quantify, mostly under pKd 3.1 to 4

Row | Binder | pKd
10 | B1 | below the threshold

What follows are binders tested against NHERF4_4, Q86UT5 (assay: holdup assay). Conditions: plain residues with an end cap or a label only (N-terminal biotin on a linker: ado-ado).
Design: key: below the threshold = too weak to quantify, mostly under pKd 3.1 to 4

NHERF4_4, Q86UT5, sequence (Q86UT5 464-550): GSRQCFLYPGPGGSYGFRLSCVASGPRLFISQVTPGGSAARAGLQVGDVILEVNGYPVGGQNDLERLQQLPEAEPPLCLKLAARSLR

Row | Binder | pKd
11 | B1 | below the threshold

The binders below were run against DLG2_3, Q15700 (assay: holdup assay). Conditions: plain residues with an end cap or a label only (N-terminal biotin on a linker: ado-ado).
Design: key: below the threshold = too weak to quantify, mostly under pKd 3.1 to 4

Row | Binder | pKd
12 | B1 | below the threshold

These binders were tested against GRIP2_6, Q9C0E4 (assay: holdup assay). Conditions: plain residues with an end cap or a label only (N-terminal biotin on a linker: ado-ado).
Design: key: below the threshold = too weak to quantify, mostly under pKd 3.1 to 4

GRIP2_6, Q9C0E4, sequence (Q9C0E4 648-740): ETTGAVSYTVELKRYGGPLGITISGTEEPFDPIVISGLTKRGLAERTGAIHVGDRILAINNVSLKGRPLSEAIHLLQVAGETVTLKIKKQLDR

Row | Binder | pKd
13 | B1 | below the threshold

These binders were tested against T6, SNTB1, Q13884 (assay: holdup assay). Conditions: plain residues with an end cap or a label only (N-terminal biotin on a linker: ado-ado).
Design: key: below the threshold = too weak to quantify, mostly under pKd 3.1 to 4

Row | Binder | pKd
14 | B1 | below the threshold

Each binder was assayed against SCRIB_3, Q14160 (assay: holdup assay). Conditions: plain residues with an end cap or a label only (N-terminal biotin on a linker: ado-ado).
Design: key: below the threshold = too weak to quantify, mostly under pKd 3.1 to 4

SCRIB_3, Q14160, sequence (Q14160 999-1103): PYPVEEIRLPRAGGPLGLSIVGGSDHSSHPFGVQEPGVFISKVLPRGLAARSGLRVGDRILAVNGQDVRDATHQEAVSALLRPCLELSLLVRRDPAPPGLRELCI

Row | Binder | pKd
15 | B1 | 4.02

These binders were tested against T7, LRRC7, Q96NW7 (assay: holdup assay). Conditions: plain residues with an end cap or a label only (N-terminal biotin on a linker: ado-ado).
Design: key: below the threshold = too weak to quantify, mostly under pKd 3.1 to 4

Row | Binder | pKd
16 | B1 | below the threshold

Each binder was assayed against Inadl_1, Q8NI35 (assay: holdup assay). Conditions: plain residues with an end cap or a label only (N-terminal biotin on a linker: ado-ado).
Design: key: below the threshold = too weak to quantify, mostly under pKd 3.1 to 4

Inadl_1, Q8NI35, sequence (Q8NI35 113-229): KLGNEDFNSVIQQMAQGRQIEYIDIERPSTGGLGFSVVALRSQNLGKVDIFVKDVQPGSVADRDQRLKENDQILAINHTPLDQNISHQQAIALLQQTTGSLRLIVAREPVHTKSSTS

Row | Binder | pKd
17 | B1 | below the threshold

These binders were tested against T8, MPP7, Q5T2T1 (assay: holdup assay). Conditions: plain residues with an end cap or a label only (N-terminal biotin on a linker: ado-ado).
Design: key: below the threshold = too weak to quantify, mostly under pKd 3.1 to 4

Row | Binder | pKd
18 | B1 | below the threshold

Each binder was assayed against T9, RHPN1, Q8TCX5 (assay: holdup assay). Conditions: plain residues with an end cap or a label only (N-terminal biotin on a linker: ado-ado).
Design: key: below the threshold = too weak to quantify, mostly under pKd 3.1 to 4

Row | Binder | pKd
19 | B1 | 3.67

Each binder was assayed against IL16_1, Q14005 (assay: holdup assay). Conditions: plain residues with an end cap or a label only (N-terminal biotin on a linker: ado-ado).
Design: key: below the threshold = too weak to quantify, mostly under pKd 3.1 to 4

IL16_1, Q14005, sequence (Q14005 210-306): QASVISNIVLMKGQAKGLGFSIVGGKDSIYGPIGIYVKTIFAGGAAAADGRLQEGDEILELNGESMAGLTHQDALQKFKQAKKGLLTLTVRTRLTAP

Row | Binder | pKd
20 | B1 | below the threshold

These binders were tested against T10, ARHGAP21, Q5T5U3 (assay: holdup assay). Conditions: plain residues with an end cap or a label only (N-terminal biotin on a linker: ado-ado).
Design: key: below the threshold = too weak to quantify, mostly under pKd 3.1 to 4

Row | Binder | pKd
21 | B1 | 3.77

What follows are binders tested against PDLIM1, O00151 (assay: holdup assay). Conditions: plain residues with an end cap or a label only (N-terminal biotin on a linker: ado-ado).
Design: key: below the threshold = too weak to quantify, mostly under pKd 3.1 to 4

PDLIM1, O00151, sequence (O00151 1-87): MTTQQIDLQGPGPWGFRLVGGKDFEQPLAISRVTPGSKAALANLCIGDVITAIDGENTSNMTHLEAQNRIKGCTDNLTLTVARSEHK

Row | Binder | pKd
22 | B1 | below the threshold

These binders were tested against Inadl_3, Q8NI35 (assay: holdup assay). Conditions: plain residues with an end cap or a label only (N-terminal biotin on a linker: ado-ado).
Design: key: below the threshold = too weak to quantify, mostly under pKd 3.1 to 4

Inadl_3, Q8NI35, sequence (Q8NI35 359-469): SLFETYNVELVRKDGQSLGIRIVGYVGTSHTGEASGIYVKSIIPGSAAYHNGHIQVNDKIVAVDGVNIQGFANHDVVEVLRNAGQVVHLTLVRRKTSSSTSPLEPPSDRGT

Row | Binder | pKd
23 | B1 | below the threshold

What follows are binders tested against GORASP2, Q9H8Y8 (assay: holdup assay). Conditions: plain residues with an end cap or a label only (N-terminal biotin on a linker: ado-ado).
Design: key: below the threshold = too weak to quantify, mostly under pKd 3.1 to 4

Row | Binder | pKd
24 | B1 | below the threshold

Each binder was assayed against Inadl_4, Q8NI35 (assay: holdup assay). Conditions: plain residues with an end cap or a label only (N-terminal biotin on a linker: ado-ado).
Design: key: below the threshold = too weak to quantify, mostly under pKd 3.1 to 4

Inadl_4, Q8NI35, sequence (Q8NI35 547-651): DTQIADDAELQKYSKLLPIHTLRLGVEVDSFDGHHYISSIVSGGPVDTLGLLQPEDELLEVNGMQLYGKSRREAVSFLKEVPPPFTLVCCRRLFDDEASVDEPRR

Row | Binder | pKd
25 | B1 | below the threshold

These binders were tested against T11, MPDZ_5, O75970 (assay: holdup assay). Conditions: plain residues with an end cap or a label only (N-terminal biotin on a linker: ado-ado).
Design: key: below the threshold = too weak to quantify, mostly under pKd 3.1 to 4

Row | Binder | pKd
26 | B1 | below the threshold

These binders were tested against NHERF4_1, Q86UT5-2 (assay: holdup assay). Conditions: plain residues with an end cap or a label only (N-terminal biotin on a linker: ado-ado).
Design: key: below the threshold = too weak to quantify, mostly under pKd 3.1 to 4

NHERF4_1, Q86UT5-2, sequence (Q86UT5 other isoform, or with tags, fused parts or gaps): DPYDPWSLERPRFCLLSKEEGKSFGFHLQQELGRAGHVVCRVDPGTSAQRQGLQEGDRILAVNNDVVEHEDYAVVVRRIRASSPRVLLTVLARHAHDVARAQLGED

Row | Binder | pKd
27 | B1 | 3.74
